Assay results published in publication PMC11858715 (Molecules, 2025).

T1: sense peptide S2 (YIYRNYPDF), ammodytoxin A segment from position 115 to 124 (Vipera ammodytes)
T1 peptide: YIYRNYPDF


Assays:
Assay in all cases: other fluorescence titration
Details in all cases: both partners purified
[1] = biological target: T2, sense peptide S1 ([…]), ammodytoxin A segment from position 6 to 11 (Vipera ammodytes)
T2 construct: source: synthetic peptide, bought: GenScript Biotech B.V

[2] = biological target: T1, sense peptide S2 (YIYRNYPDF), …
[3] = biological target: T1, sense peptide S2 (YIYRNYPDF), …

| Binder | Kd [1] [µM] | stoichiometry N [2] | Kd [3] [µM] |
| --- | --- | --- | --- |
| SHHYEP (designed binder, source: synthetic peptide, bought: GenScript Biotech B.V) [antisense peptide S1A1 (SHHYEP)] | 4.9 | – | – |
| SHHYSP (designed binder) [antisense peptide S1A2 (SHHYSP)] | 1.4 | – | – |
| INISIVGVK (designed binder) [antisense peptide S2A1 (INISIVGVK)] | – | 1 | 1.1 |
| VNISVIGIK (designed binder) [antisense peptide S2A2 (VNISVIGIK)] | – | 1 | 8.9 |
